Experiments:
[1] = biological target: T1, human IL-17 receptor subunit C (human, UniProt Q8NAC3-2 21-467, limits assumed); test: ELISA, coated receptor; SM17 at 0.0032 µg/mL; well 1
T1 construct: also called IL17RC; hIL17RC
T1 sequence (looked up): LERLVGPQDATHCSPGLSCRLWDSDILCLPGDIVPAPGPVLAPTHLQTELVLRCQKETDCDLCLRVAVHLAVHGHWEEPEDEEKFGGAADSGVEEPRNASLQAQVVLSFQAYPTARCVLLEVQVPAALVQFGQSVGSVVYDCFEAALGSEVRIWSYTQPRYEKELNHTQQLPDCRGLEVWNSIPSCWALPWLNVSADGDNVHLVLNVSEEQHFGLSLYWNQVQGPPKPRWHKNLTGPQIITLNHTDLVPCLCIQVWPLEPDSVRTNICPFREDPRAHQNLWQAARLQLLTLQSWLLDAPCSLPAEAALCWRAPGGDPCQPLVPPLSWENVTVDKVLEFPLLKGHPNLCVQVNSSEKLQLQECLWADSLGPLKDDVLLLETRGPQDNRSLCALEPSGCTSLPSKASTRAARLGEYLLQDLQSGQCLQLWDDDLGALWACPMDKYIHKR

[2] = biological target: T2, human IL-17 receptor subunit E (human, UniProt Q8NFR9 24-454, limits assumed); test: as above
T2 construct: also called hIL17RE
T2 sequence (looked up): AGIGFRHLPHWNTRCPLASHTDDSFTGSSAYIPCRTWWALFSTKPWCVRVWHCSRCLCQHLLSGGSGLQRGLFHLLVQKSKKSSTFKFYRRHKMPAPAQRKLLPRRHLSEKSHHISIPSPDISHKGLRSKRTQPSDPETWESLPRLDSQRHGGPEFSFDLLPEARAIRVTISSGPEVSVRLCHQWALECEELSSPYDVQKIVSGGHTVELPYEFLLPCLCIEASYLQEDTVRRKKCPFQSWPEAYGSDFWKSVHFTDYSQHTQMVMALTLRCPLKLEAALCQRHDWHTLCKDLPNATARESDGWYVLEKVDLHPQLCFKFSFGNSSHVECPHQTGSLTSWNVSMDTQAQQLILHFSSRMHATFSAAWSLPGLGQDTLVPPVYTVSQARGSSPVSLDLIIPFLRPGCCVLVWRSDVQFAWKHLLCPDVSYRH

[3] = biological target: T3, human IL-17RB protein (recombinant, R&D systems) (human); test: as above
T3 construct: Bought protein; also called hIL17RB
T3 sequence (Q9NRM6 whole entry, looked up): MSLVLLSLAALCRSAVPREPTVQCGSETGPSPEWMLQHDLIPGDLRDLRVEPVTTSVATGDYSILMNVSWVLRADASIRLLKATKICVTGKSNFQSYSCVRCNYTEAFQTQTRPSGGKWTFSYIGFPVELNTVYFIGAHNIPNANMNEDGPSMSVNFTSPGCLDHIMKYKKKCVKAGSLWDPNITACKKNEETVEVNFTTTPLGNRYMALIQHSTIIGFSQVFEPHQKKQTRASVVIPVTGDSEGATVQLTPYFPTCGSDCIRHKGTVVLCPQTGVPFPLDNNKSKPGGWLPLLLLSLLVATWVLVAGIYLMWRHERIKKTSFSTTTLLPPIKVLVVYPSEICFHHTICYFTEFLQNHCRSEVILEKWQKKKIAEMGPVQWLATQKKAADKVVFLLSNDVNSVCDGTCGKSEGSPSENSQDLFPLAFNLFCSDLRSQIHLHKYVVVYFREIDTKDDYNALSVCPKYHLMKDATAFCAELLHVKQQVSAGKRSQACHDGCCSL

[4] = biological target: T4, human IL-17 receptor subunit D (human, UniProt Q8NFM7 28-299, limits assumed); test: ELISA, coated receptor; SM17 at 0.0032 µg/mL; well 2
T4 construct: also called IL17RD; hIL 17RD
T4 sequence (looked up): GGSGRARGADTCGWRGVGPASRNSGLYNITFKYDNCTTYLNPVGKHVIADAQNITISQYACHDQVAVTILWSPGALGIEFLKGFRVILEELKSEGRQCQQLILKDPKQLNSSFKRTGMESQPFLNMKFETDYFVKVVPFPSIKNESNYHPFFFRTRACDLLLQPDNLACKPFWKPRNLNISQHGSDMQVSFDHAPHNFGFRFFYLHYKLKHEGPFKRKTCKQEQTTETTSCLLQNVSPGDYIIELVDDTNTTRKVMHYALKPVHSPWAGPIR

[5] = biological target: T1, human IL-17 receptor subunit C; test: as above
[6] = biological target: T2, human IL-17 receptor subunit E; test: as above
[7] = biological target: T3, human IL-17RB protein (recombinant, R&D …); test: as above
[8] = biological target: T5, human IL-17 receptor subunit A (human, UniProt Q96F46 33-320); test: as above
T5 construct: also called IL17RA; hIL17RA

[9] = biological target: T3, human IL-17RB protein (recombinant, R&D …); test: BLI (Octet RED96), SM17 captured via anti-human Fab CH1, IL17RB in solution; trial 2
Source text: (§1) Irrelevant antibody (SM03, anti-human CD22 chimeric IgG1 antibody, SinoMab BioScience Limited) was used as the control reference.

[10] = biological target: T6, cynomolgus monkey IL-17RB protein (recombinant, R&D systems) (cynomolgus monkey, UniProt A0A2K5TUK1 18-289); test: as above
T6 construct: also called cynomolgus IL17RB; Cyno-IL17RB
T6 sequence: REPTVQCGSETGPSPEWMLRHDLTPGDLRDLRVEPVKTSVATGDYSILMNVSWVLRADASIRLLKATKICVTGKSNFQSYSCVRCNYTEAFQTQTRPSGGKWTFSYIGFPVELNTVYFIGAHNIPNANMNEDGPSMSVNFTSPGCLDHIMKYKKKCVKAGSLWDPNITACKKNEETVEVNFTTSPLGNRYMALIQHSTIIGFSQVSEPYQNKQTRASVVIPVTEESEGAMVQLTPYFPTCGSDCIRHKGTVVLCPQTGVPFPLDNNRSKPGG
Source text: as §1

OD 450 nm Absorption [1]: 0.03 OD450 | OD 450 nm Absorption [2]: -0.01 OD450 | OD 450 nm Absorption [3]: 0.16 OD450 | OD 450 nm Absorption [4]: -0.04 OD450 | OD 450 nm Absorption [5]: -0.04 OD450 | OD 450 nm Absorption [6]: -0.02 OD450 | OD 450 nm Absorption [7]: 0.07 OD450 | OD 450 nm Absorption [8]: -0.03 OD450 | Kd [9]: 0.546 nM | koff [9]: 9.98e-05 s⁻¹ | kon [9]: 183000 M⁻¹ s⁻¹ | Kd [10]: 5.11 nM | koff [10]: 0.000215 s⁻¹ | kon [10]: 42100 M⁻¹ s⁻¹
B1: SM17 (antibody, human IgG4 S228P, kappa, V domains shown)
VH: QVQLVQSGAEVKKPGASVKVSCKASGYTFISYWMNWVRQAPGQGLEWMGRIDPYDSEIQYNQKFKDRVTMTRDTSISTAYMELSRLRSDDTAVYYCARSGGFDWFAYWGQGTLVTVSS
VL: DIQMTQSPSSLSASVGDRVTITCRASENINSNLAWYQQKPGKAPKLLLYDVTNLADGVPSRFSGSGSGTDYTLTISSLQPEDFATYYCQHFWGPPYTFGGGTKVEIKR
notes: other paragraphs and claim 15 call the same entries VH and VL; also called humanized anti-IL17RB monoclonal antibody

Reference: US20240409647A1 (SINOMAB BIOSCIENCE, published 2024)
